Target: T1, γc on human cell lines (Ramos, HH, U937) (human, UniProt P31785 23-369)
T1 sequence (looked up): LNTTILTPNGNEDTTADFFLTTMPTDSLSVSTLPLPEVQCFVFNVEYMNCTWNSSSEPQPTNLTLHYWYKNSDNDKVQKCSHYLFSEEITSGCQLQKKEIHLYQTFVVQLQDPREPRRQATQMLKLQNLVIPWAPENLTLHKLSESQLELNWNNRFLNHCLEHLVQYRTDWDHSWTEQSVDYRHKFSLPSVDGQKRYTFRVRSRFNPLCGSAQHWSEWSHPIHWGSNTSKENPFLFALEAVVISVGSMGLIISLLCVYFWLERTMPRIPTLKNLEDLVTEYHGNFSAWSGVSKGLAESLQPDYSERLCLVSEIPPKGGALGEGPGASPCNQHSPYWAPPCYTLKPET
Assay: cell-based or functional assay

B1: super-4 (IL-4 RGA), free, not bound to IL-4Rα (ligand)
chain: HKCDITLQEIIKTLNSLTEQKTLCTELTVTDIFAASKNTTEKETFCRAATVLRQFYSHHEKDTRCLGATAQQFHRHKQLIRFLKRLDRNLWGLAGLNSCPVKEANQSTLENFLERLRVIMQSKWFKCGAHHHHHH
  STAT6 phosphorylation in Ramos cells, potency against IL-4: ~3 fold
  STAT6 phosphorylation in Ramos cells, potency against KFR: ~10 fold

Reference: US20160244499A1 (Stanford University, published 2016)
